How the values were obtained:
[1] = target: DENV-2 (TSV01) E protein mutant T155A, soluble part, V5 tag, from S2 cells (dengue virus serotype 2 (DENV-2), strain TSV01); experiment: sandwich ELISA, V5-tagged soluble E captured by anti-V5
[2] = target: DENV-2 (TSV01) E protein mutant N153A, soluble part, V5 tag, from S2 cells (dengue virus serotype 2 (DENV-2), strain TSV01); experiment: as above
[3] = target: DENV-2 (TSV01) E protein mutant F108A, soluble part, V5 tag, from S2 cells (dengue virus serotype 2 (DENV-2), strain TSV01); experiment: as above
[4] = target: DENV-2 (TSV01) E protein mutant Q77A, soluble part, V5 tag, from S2 cells (dengue virus serotype 2 (DENV-2), strain TSV01); experiment: as above
[5] = target: DENV-2 (TSV01) E protein mutant N203A, soluble part, V5 tag, from S2 cells (dengue virus serotype 2 (DENV-2), strain TSV01); experiment: as above
[6] = target: DENV-2 (TSV01) E protein mutant K295A, soluble part, V5 tag, from S2 cells (dengue virus serotype 2 (DENV-2), strain TSV01); experiment: as above
[7] = target: DENV-2 (TSV01) E protein mutant E49A, soluble part, V5 tag, from S2 cells (dengue virus serotype 2 (DENV-2), strain TSV01); experiment: as above
[8] = target: DENV-2 (TSV01) E protein mutant R323A, soluble part, V5 tag, from S2 cells (dengue virus serotype 2 (DENV-2), strain TSV01); experiment: as above
[9] = target: DENV-2 (TSV01) E protein mutant W101A, soluble part, V5 tag, from S2 cells (dengue virus serotype 2 (DENV-2), strain TSV01); experiment: as above
[10] = target: DENV-2 (TSV01) E protein mutant K64A, soluble part, V5 tag, from S2 cells (dengue virus serotype 2 (DENV-2), strain TSV01); experiment: as above
[11] = target: DENV-2 (TSV01) E protein mutant S274A, soluble part, V5 tag, from S2 cells (dengue virus serotype 2 (DENV-2), strain TSV01); experiment: as above
[12] = target: DENV-2 (TSV01) E protein mutant G100A, soluble part, V5 tag, from S2 cells (dengue virus serotype 2 (DENV-2), strain TSV01); experiment: as above
[13] = target: DENV-2 (TSV01) E protein mutant Q167A, soluble part, V5 tag, from S2 cells (dengue virus serotype 2 (DENV-2), strain TSV01); experiment: as above
[14] = target: DENV-2 (TSV01) E protein mutant S169A, soluble part, V5 tag, from S2 cells (dengue virus serotype 2 (DENV-2), strain TSV01); experiment: as above
[15] = target: DENV-2 (TSV01) E protein mutant N134A, soluble part, V5 tag, from S2 cells (dengue virus serotype 2 (DENV-2), strain TSV01); experiment: as above
[16] = target: DENV-4 virus particle, strain 2641Y08, live (dengue virus serotype 4 (DENV-4), strain 2641Y08); experiment: cell-based or functional assay
[17] = target: DENV-1 virus particle, strain 05K2916 (167), live (dengue virus serotype 1 (DENV-1), strain 05K2916); experiment: cell-based or functional assay
[18] = target: DENV-3 virus, strain VN32/96 (dengue virus serotype 3 (DENV-3), strain VN32/96); experiment: cell-based or functional assay
[19] = target: DENV-2 virus particle, strain TSV01, live (dengue virus serotype 2 (DENV-2), strain TSV01); experiment: cell-based or functional assay
[20] = target: DENV-2 (TSV01) E protein mutant E49A, full length, expressed with prM in HEK293 cells (dengue virus serotype 2 (DENV-2), strain TSV01); experiment: flow cytometry on transfected HEK293 cells, normalised to 3H5 staining and to wt
[21] = target: DENV-2 (TSV01) E protein mutant N134A, full length, expressed with prM in HEK293 cells (dengue virus serotype 2 (DENV-2), strain TSV01); experiment: as above
[22] = target: DENV-2 (TSV01) E protein mutant N153A, full length, expressed with prM in HEK293 cells (dengue virus serotype 2 (DENV-2), strain TSV01); experiment: as above
[23] = target: DENV-2 (TSV01) E protein mutant K295A, full length, expressed with prM in HEK293 cells (dengue virus serotype 2 (DENV-2), strain TSV01); experiment: as above
[24] = target: DENV-2 (TSV01) E protein mutant S169A, full length, expressed with prM in HEK293 cells (dengue virus serotype 2 (DENV-2), strain TSV01); experiment: as above
[25] = target: DENV-2 (TSV01) E protein mutant E161A, full length, expressed with prM in HEK293 cells (dengue virus serotype 2 (DENV-2), strain TSV01); experiment: as above
[26] = target: DENV-2 (TSV01) E protein mutant W101A, full length, expressed with prM in HEK293 cells (dengue virus serotype 2 (DENV-2), strain TSV01); experiment: as above
[27] = target: DENV-2 (TSV01) E protein mutant R323A, full length, expressed with prM in HEK293 cells (dengue virus serotype 2 (DENV-2), strain TSV01); experiment: as above
[28] = target: DENV-2 (TSV01) E protein mutant Q77A, full length, expressed with prM in HEK293 cells (dengue virus serotype 2 (DENV-2), strain TSV01); experiment: as above
[29] = target: DENV-2 (TSV01) E protein mutant K310A, full length, expressed with prM in HEK293 cells (dengue virus serotype 2 (DENV-2), strain TSV01); experiment: as above
[30] = target: DENV-2 (TSV01) E protein mutant N203A, full length, expressed with prM in HEK293 cells (dengue virus serotype 2 (DENV-2), strain TSV01); experiment: as above
[31] = target: DENV-2 (TSV01) E protein mutant I162A, full length, expressed with prM in HEK293 cells (dengue virus serotype 2 (DENV-2), strain TSV01); experiment: as above
[32] = target: DENV-2 (TSV01) E protein mutant Q200A, full length, expressed with prM in HEK293 cells (dengue virus serotype 2 (DENV-2), strain TSV01); experiment: as above
[33] = target: DENV-2 (TSV01) E protein mutant W391A, full length, expressed with prM in HEK293 cells (dengue virus serotype 2 (DENV-2), strain TSV01); experiment: as above
[34] = target: DENV-2 (TSV01) E protein mutant E202A, full length, expressed with prM in HEK293 cells (dengue virus serotype 2 (DENV-2), strain TSV01); experiment: as above
[35] = target: DENV-2 (TSV01) E protein mutant K122A, full length, expressed with prM in HEK293 cells (dengue virus serotype 2 (DENV-2), strain TSV01); experiment: as above
[36] = target: DENV-2 (TSV01) E protein mutant F392A, full length, expressed with prM in HEK293 cells (dengue virus serotype 2 (DENV-2), strain TSV01); experiment: as above
[37] = target: DENV-2 (TSV01) E protein mutant T155A, full length, expressed with prM in HEK293 cells (dengue virus serotype 2 (DENV-2), strain TSV01); experiment: as above
[38] = target: DENV-2 (TSV01) wildtype E protein, full length, expressed with prM in HEK293 cells (dengue virus serotype 2 (DENV-2), strain TSV01); experiment: flow cytometry on transfected HEK293 cells; the reference itself
[39] = target: DENV-2 (TSV01) wildtype E protein, soluble part, V5 tag, from S2 cells (dengue virus serotype 2 (DENV-2), strain TSV01); experiment: sandwich ELISA, V5-tagged soluble E captured by anti-V5; the reference itself

B1: 3C H5L1 antibody (antibody, V domains shown)
VH: EVQLVQSGPDVEKPGASVKVSCKASGYTFTSNYIHWVRQAPGQGLEWMGVINPRGGSTASAQKFQGRITMTRDTSTSTVYMELSSLRSDDTAVYYCARGGRALFYDSYTTPRDGGSWWFDPWGQGSLVTVSS
VL: DIQLTQSPSSLSASVGDRVTFTCQASQDIRKYLNWYQQKPGKAPKLLIYDASNLKTGVPSRFSGSGSGTDFTFTISSLQPEDVATYYCQQFDDLPITFGQGTRLQIK
- relative binding (normalised to wt E protein) (ratio to wt E protein) [1]: 0.839
- relative binding (normalised to wt E protein) (ratio to wt E protein) [2]: 0.806
- relative binding (normalised to wt E protein) (ratio to wt E protein) [3]: 0.806
- relative binding (normalised to wt E protein) (ratio to wt E protein) [4]: 0.747
- relative binding (normalised to wt E protein) (ratio to wt E protein) [5]: 0.72
- relative binding (normalised to wt E protein) (ratio to wt E protein) [6]: 0.189
- relative binding (normalised to wt E protein) (ratio to wt E protein) [7]: 0.695
- relative binding (normalised to wt E protein) (ratio to wt E protein) [8]: 0.334
- relative binding (normalised to wt E protein) (ratio to wt E protein) [9]: 0.242
- relative binding (normalised to wt E protein) (ratio to wt E protein) [10]: 0.444
- relative binding (normalised to wt E protein) (ratio to wt E protein) [11]: 0.0859
- relative binding (normalised to wt E protein) (ratio to wt E protein) [12]: 0.186
- relative binding (normalised to wt E protein) (ratio to wt E protein) [13]: 0.774
- relative binding (normalised to wt E protein) (ratio to wt E protein) [14]: 0.784
- relative binding (normalised to wt E protein) (ratio to wt E protein) [15]: 0.221
- EC50, plaque reduction neutralization test (PRNT) on BHK-21 cells [16]: 0.07 µg/mL
- EC50, plaque reduction neutralization test (PRNT) on BHK-21 cells [17]: 0.6 µg/mL
- EC50, plaque reduction neutralization test (PRNT) on BHK-21 cells [18]: 0.5 µg/mL
- EC50, plaque reduction neutralization test (PRNT) on BHK-21 cells [19]: 1 ng/mL
- relative binding (normalised to wt E protein) (ratio to wt E protein) [20]: 0.996
- relative binding (normalised to wt E protein) (ratio to wt E protein) [21]: 1.08
- relative binding (normalised to wt E protein) (ratio to wt E protein) [22]: 0.535
- relative binding (normalised to wt E protein) (ratio to wt E protein) [23]: 1.04
- relative binding (normalised to wt E protein) (ratio to wt E protein) [24]: 0.963
- relative binding (normalised to wt E protein) (ratio to wt E protein) [25]: 1.07
- relative binding (normalised to wt E protein) (ratio to wt E protein) [26]: 0.165
- relative binding (normalised to wt E protein) (ratio to wt E protein) [27]: 0.416
- relative binding (normalised to wt E protein) (ratio to wt E protein) [28]: 0.38
- relative binding (normalised to wt E protein) (ratio to wt E protein) [29]: 0.15
- relative binding (normalised to wt E protein) (ratio to wt E protein) [30]: 0.719
- relative binding (normalised to wt E protein) (ratio to wt E protein) [31]: 0.242
- relative binding (normalised to wt E protein) (ratio to wt E protein) [32]: 0.394
- relative binding (normalised to wt E protein) (ratio to wt E protein) [33]: 0.144
- relative binding (normalised to wt E protein) (ratio to wt E protein) [34]: 2.02
- relative binding (normalised to wt E protein) (ratio to wt E protein) [35]: 0.27
- relative binding (normalised to wt E protein) (ratio to wt E protein) [36]: 0.133
- relative binding (normalised to wt E protein) (ratio to wt E protein) [37]: 0.621
- relative binding (normalised to wt E protein) (ratio to wt E protein) [38]: 1
- relative binding (normalised to wt E protein) (ratio to wt E protein) [39]: 1

— patent US20180072798A1
